From publication PMC12700558, “Aggregation shifts amyloid-β peptides from synaptogenic to synaptotoxic” (The Journal of Clinical Investigation, 2025)

System: human neurons cocultured with mouse glia (entire glia/neuron coculture)
Description: The MTT assay employs yellow tetrazolium dye that is reduced to a purple formazan crystal by viable cells with active metabolism ([21]). Because it measures metabolic activity in all cells, this assay serves as a broad cytotoxicity read out for the entire glia/neuron coculture system. The amount of formazan produced is then measured because it is directly proportional to the number of viable cells ([21]) (Figure 1B and Supplemental Figure 1A). The nuclear localization TdTomato assay, conversely, enables monitoring of cellular stress by tracking the localization of fluorescent TdTomato fused to a nuclear localization signal. Under healthy conditions, the nuclear localization signal directs the NLS-TdTomato to the nucleus. When toxicity in a cell causes a reduction in ATP levels, NLS-TdTomato leaks out of the nucleus into the cytoplasm, which we scored as an index of toxicity (Figure 1, C and D, and Supplemental Figure 1, B–D). Because the reporter is expressed only in neurons, this assay specifically assesses neurotoxicity within the coculture. We developed this assay because it can be performed on live cells and reflects decreases in ATP levels in these cells. The NLS-TdTomato assay was validated by treating cultures with 5% DMSO and 200 μM hydrogen peroxide, 2 well-established neurotoxins. […]

-.DAEFRHDSGYEVHHQKLVFFAGDVGSNKGAIIGLMVGGVVI.A [Aβ42^arctic]
Concentration at which neurotoxic, MTT assay: greater than or equal to 0.025 μM
